# Source: the DeepSol protein solubility set
# Assay: soluble on expression in E. coli; label from the status in PepcDB or PDB records
row,Sequence,soluble on expression in E. coli
1,MGSDKIHHHHHHMQNPFTLTFGRSPLESVDRPVQINEIIENFTADTINQQMFIITGVRGSGKTVMMTEISHRLRENDDWVVIELNPATELLPAMLSKLNSDNICAGLIKSAKLDLSFFGFGVSIEGTQPITDAETAIIKILERLKKSGKRLLITIDEMTNSEYMKVFAGAFQIFVRQELPVFLLGTGLYENIEELQNEKSLTFLYRAPKIQLKPLNNAAIINKYKTIFNISPEKAAQMAGLTKGYPFAFQVLGYLTWNNGGDYNGILGEYEQYLSEFVYDKIWSELSQKDRMVAKGIADVQSGKIKEIRDAIGMETNEFNPYRKRLIKKGIVSGEIRGYVYFTLPLFEEYVIENY,not soluble
2,MQLNETAVGEKVRISELKIENAMLKRRLLALGCDEGCDICIKQKGLFGGPCTFETKGQYISIRQCDACAIMVERRLEHHHHHH,not soluble
3,MKDWQLPSHSGPYELRIEVQPKSHHRAHYETEGSRGAVKASAGGHPIVQLHGYLENEPLMLQLFIGTADDRLLRPHAFYQVHRITGKTVSTTSHEAILSNTKVLEIPLLPENSMRAVIDCAGILKLRNSDIELRKGETDIGRKNTRVRLVFRVHVPQPSGRTLSLQVASNPIECSQRS,soluble
4,GMTTPPARTAKQRIQDTLNRLELDVDAWVSTAGADGGAPYLVPLSYLWDGETFLVATPAASPTGRNLSETGRVRLGIGPTRDLVLVEGTALPLEPAGLPDGVGDTFAEKTGFDPRRLTTSYLYFRISPRRVQAWREANELSGRELMRDGEWLVTD,soluble
5,MSLSAAEAGPLQGGLHVLIVDDNDINLKVLSTFMSKIGCSYDTASNGLVAVEKYRQTQQKFDYVLMDISMPIMDGITASRTIREYEDESLLERCTIMAVTGVASSDMQQQAFAAGMDDYLVKPLSLHDLKRILGVNEGHHHHHH,not soluble
6,MGSDKIHHHHHHMQVGTIFGHKNSEGTLVSSAAIIPYESKLASIGMVIVSSQCRGLGLGREVTEACIKATLEDTTLMLIATDEGRPLYERLGFAAVERIHKHLCDDYKEPESIPSMDVTIEELRSNDFRQLVQLDEGAMGVRRSRFLKQRTTQANQSLVAKDKAGNVIGYGLSILGPIHLIIGPIVAPNHEIACLILDRLACQHKGKLRMDVPSGHHTFLQHLQRRGFTEVNTPPVMAKQSAYEPRRNGTLFAIAAQVFG,not soluble
7,MTTLPPPATELSADEARRLALRAQGFLGAPDRRAGVRGVLRHLGAVQLDTISVLARSHELIPYARLGAVGRRTVDDAYWTDTHAFEYWSHAACILPIEEWPHFAFRRRAYRNRPHWNHHLPEGDYDRVVKQLREEGPLTATDLGGAKRTSEWWDWSGTKVAVERALMYGEVVCVERRGWKRVYDLAERAVPAALLHDDLDDTECLRRLVRLAGQSLGVGTRADIADYHRLKAEQVDAVIADSGLVPVTVAGWGRPAWADPAALETVPRGRHRTTLLSPFDSLIWERARTERIFGFTHRLEAYVPRQKRVHGYFAMPVLAGGRLVGRVDPAREGRTLVAKQVTLDGPKAAPAVAQALVEAAGWVDCTNVRVERVETPDLREPLARELARLLDLEHHHHHH,not soluble
8,GAMGMKVDVGPDPSLVYRPDVDPEMAKSKDSFRNYTSGPLLDRVFTTYKLMHTHQTVDFVSRKRIQYGSFSYKKMTIMEAVGMLDDLVDESDPDVDFPNSFHAFQTAEGIRKAHPDKDWFHLVGLLHDLGKIMALWGEPQWAVVGDTFPVGCRPQASVVFCDSTFQDNPDLQDPRYSTELGMYQPHCGLENVLMSWGHDEYLYQMMKFNKFSLPSEAFYMIRFHSFYPWHTGGDYRQLCSQQDLDMLPWVQEFNKFDLYTKCPDLPDVESLRPYYQGLIDKYCPGTLSW,soluble
9,SLDEAEMKAVNIHDGIDGTLMILHHRLKAAIRRPKIEIVKDYAKLPLIECYPGKLNQVFMNILANAIDALEEGMGNEEIPPPTGQITIRTEVLDNQWVVIRIADNGPGMKEEVIRRIYDPFFTTKDVGKGTGLGMAISYQIVVDKHGGMLKCRSQPGEGTEFWIQIPVNCALADAAEEG,soluble
10,MIVREGSAEILVPEVYHGPGKRGTGFYNADQKINRDITIEFIKKMGIRNVLDGFGGTGIRGIRISKETDSAVTISEVSPDSYRLIRDNVERNGSQASVINDSFECVLQHGAYEYVDVDPYGSPVPYLDAALMGVKRNGFLGVTATDQSALTGSVPHKTRIRYDALIKNDTFRHEMGIRLLIGYMAKRAASLGRFIDPLISIWHGHYYRVFVRVRKGFEGAGRMMQNLGYVNKHNLLSGIYQDMDEGPVWKGNLQDNAVAEAVLASAGHKAFNPEENRLLFCDLTDIARARHTSLPDIESVIDALSSSGHAASRTMFSPTGIKTDASCDLVESLMMDTLHRRSPA,not soluble
